This is an account of results in US20030166587A1.

Non-standard residues stand in square brackets, D forms with d. No end group written: not given here. pS = N[C@@H](COP(=O)(O)O)C(=O)O

In the test the target is specific IκB E3 ubiquitin ligase activity of HeLa extract. In words: cell-based or functional assay.

B1: pp21, doubly phosphorylated IκBα peptide (peptide)
peptide: CKKERLLDDRHD[pS]GLD[pS]MKDEE
Molecule B1 returned an IC50 of inhibition of pIκBα ubiquitination (in vitro ubiquitination assay in HeLa extract) of 5 µM; a TNFα-stimulated NF-κB activation (nuclear p65 staining) abolished, percent of microinjected HeLa cells of 50 to 70%; an inhibition of E-selectin expression, percent of microinjected HUVEC of 70 to 80%.

B2: pp19, doubly phosphorylated IκBα peptide (peptide)
peptide: CERLLDDRHD[pS]GLD[pS]MKDEE
Regarding B2, the IC50 of inhibition of pIκBα ubiquitination (in vitro ubiquitination assay in HeLa extract) came to 5 µM.
